# Tests used:
# [1] = biological target: gp120 from CC1/85 cl.7 (HIV-1)
# [2] = biological target: gp120 from CC101.19 cl.7 (HIV-1)
# [3] = biological target: gp120 from D1/85.16 cl.23 (HIV-1)
# [4] = biological target: gp120 from CC1/85 cl.6 (HIV-1)
substance,measurement,setting,value
sCD4 (domain or fragment),IC50 for inhibition of replication of the clonal virus in PBMC (p24 antigen); inhibits gp120-CD4 binding,[1],0.1 µg/mL
same,IC50 for inhibition of replication of the clonal virus in PBMC (p24 antigen); inhibits gp120-CD4 binding,[2],0.1 µg/mL
same,IC50 for inhibition of replication of the clonal virus in PBMC (p24 antigen); inhibits gp120-CD4 binding,[3],10 µg/mL
same,IC50 for inhibition of replication of the clonal virus in PBMC (p24 antigen); inhibits gp120-CD4 binding,[4],> 25 µg/mL

# Reference: publication PMC2718843
